In the DeepSol protein solubility set:

assay: soluble on expression in E. coli; label from the status in PepcDB or PDB records

Sequence | soluble on expression in E. coli
MPFILRRERSILKTALPPIRDDAVLCPLLPFQSAQLKEVERKHHAGTLSGNPHIQYRKILLHPHTTQSFLHVDEEVVCTSGKLLVLDFVMRFLQRTQHKLLVVCGWTLILDIVETLCGMRGIPYVRLDGRTMVKQREANIRGFNRSVANGNGVVEEAGGGGGDAEGDAATSRPRRNSRQRASTDTTGGPSPNADGRGDEEDGSSLPLATPCCFLISKVAGGAGLNLQAADTVFLLDVDYNPQRDAQALSRVYRVGQSKEVRVFRLIIDHAIEHDIVAIHEAKDDLGRAVVQAGCYDLHSSAHEREAALQGIFRAGALSRLSQQWTTTTRTADDTQGDSGEEEREEAVPSPCASFPPMTFPRCDLKDEGGADSDTEEVGKASPSPAQKSTDLHCVFISGGSGGARAMSSAPRKQVKTEMESEGSGRLADAADGEISVAVAGDVNPQCALLPHRRRRRHISFKLEKDDSEEGGGKAGRGDPAADPAGNARKLANPATAPLLFTAPPPHPSMTAAEVGEAVAAATARVQAPAEHRLAMRERLEEVLLRRKGERHVLEDMFRSV | soluble
MPFIYRRRVQFYETDAQGIVHHSNYFRYFEEARGEFLRSKGFPYSKMRDMGLEVVLLNAYCEYKKPLFYDDVFEVHLNLEELSRFTFTFSYIVFKEDIAVAKANTKHCMVKNGKIVSIPKEVLEVLKD | soluble
MPFLPPLTPPTELYVGIQLPNPISILVNYLPVRQTPIETLRNLVYSCDINTLAIDEFMTWPSLLQPESTFRPYFELLVERGSLKVFAKRATS | not soluble
MPGAAAKGSELSERIEGFVETLKRGGGQRSSEDMARETLGLLRRLITDHHWNNAGDLMDLIRREGRRMTAAQPSETTVGNMVRRVLKIIREEYGRLHGRSDESDQQESLHKLLTSGGLSEDFSFHFAPLKANIIEAINELLVELEGTMENIAAQALEHIHSNEVIMTIGYSRTVEAFLKEAARKRKFHVIVAECAPFCQGHEMAVNLSKEGIETTVMTDAAIFAVMSRVNKVIIGTKTILANGSLRAVAGTHTLALAAKHHSTPLIVCAPMFKLSPQFPSEEDSFHKFVAPEEVLPFTEGDILEKVSVHCPVFDYVPPDLITLFISNIGGNAPSYIYRLMSELYHPDDHVL | not soluble
MPGAPSFIALDWGTSSLRAWRFGESPNPQEKREFPWGIMKLPSQAATREDAFHDTFLRVCGDWLAQTPCPVLACGMLGSAQGWQSAAYLPCPVTLEGLAKQLTPVIHQQQTMLHIIPGVIKEGEMPEVMRGEETQIFGAISMEPALQNAIHQGMPVLIGLPGTHAKWAVVENNTITDFRTFMTGELFDVLSRHSILGATMHPGDEPHWDAFTHGLTAAQEHHQTGLLSTLFSTRSRLLTSNLTSSSQGDYLSGLLIGHELCGLASSLLRDLPATTPIALIGSANLNSRYSQAFSHVFPGRQIHAIPNATEQGLWRIAHAAGLLSTNARECTHAI | not soluble
MPGGVSSPVRAFKSVGGQPIVFDHVKGAHIWDVDGNQYIDYVGSWGPAIVGHAHPEVIDALHAALEKGTSFGAPCLLENILAEMVIAAVPSVEMVRFVNSGTEACMAVLRLMRAYTQREKVIKFEGCYHGHADMFLVKAGSGVATLGLPDSPGVPKATTAATLTAPYNDLEAVSRLFEQYPNDIAGVILEPVVGNAGFIPPDAGFLEGLRELTKQYGALLVFDEVMTGFRIAYGGAQEKFGVTPDLTTLGKVIGGGLPVGAYGGRAEIMKMVAPAGPVYQAGTLSGNPLAMTAGIKTLEILSRPGSYEHLDRITGKLVQGLLDAAREFGHEVCGGHISGMFGLFFTAGPVTNYEQAKQSDLKKFAAFHRGMLEQGIYLAPSQFEAGFTSLAHTEADIERTIAAARTVLSQL | soluble
MPGSLPPNGESSWPKDVGIVALEIYFPSQYVDQEELEKFDGVSAGKYTIGLGQSKMGFCSDREDINSLCLTAVQRLMERNNLSYDCIGRLEVGTETIIDKSKSVKTVLMQLFEESGNTDVEGIDTTNACYGGTAALFNAVNWVESSSWDGRYALVVAGDIAVYATGSARPTGGAGAVAMLVGPNATLVFERGLRGTHMQHAYDFYKPDMESEYPVVDGKLSIQCYLSALDHCYSTYRKKIHAQWQKEGTEKPFTLNDFGFMIFHSPYCKLVQKSFARLLVNDFISDSNPNTESGVYVGLDSFRDLKLEETYFDRDVEKAFLKASTELFNEKTKTSLLVSKENGNMYTPSVYGCLASVLAQYSPQQLAGQRIGVFSYGSGFAATLYSLRVSQDAMPGSSLDKLTSSLSDLKARLDSRKNVSPSIFADNMKLREDTHHLANYVPQGSVDDLFPGTWYLVRVDEKHRRFYARSSLMRDGPLDAAPESVHSSTANEHFPSPAKKVPRIPPAAEAEPISVTNGGH | soluble
MPGTRFSGKVVLISGSSKGIGQATAVKFAAEGAKIVLNGRSADDVEKTRKLCMEVGAKPWDLLPTVGDITNEDFVKMMVNTVIHNFGKLDILINNAGTLEVDMTGKEGWEMGVDVMDRSWNSNFKSVLMLTQAAMPHLIKTKGDIVNVSTFLSSGPIGVMSMPYYAVPKAALDQMSRSMAHEYMLKGVRLNTVNPGLVSTSFFARLPGVGDDNARKMENYVQSKTEYIPLGRVCQASDVAETILFLADRKVSECIVGQSIIIDGGSRLCCNIDMSDFKEQMAKA | not soluble
MPGVKVKETESFELALKKFKKQCEKAGILSEVRKREHYEKPSIKRKKKAIAARKRAMKKQRKMMDLEHHHHHH | not soluble
MPHTGSQHTLQATPKTAQHTGAQKAPEQAIALKKEQQLKNQEGATSHRKAHTEGCHTQKTRMSADKAGLRHRQGSGEVRARTASTRVEGECSSDGVVMMFCMPARGEEEKASGEARGEDVGSSRESRQGTAHKSTCMHTEAASLQKAGEIGKVEDAKT | not soluble
MPIPKSAKSDYTKEQKDLVGNICQCKDFYKILNVDKKASPDEIRIAFRKRIREVHPDKCKHPSATEASKVVNNAFSLLMDPAKRRQYDLQNAETSNENLYKRCNRNKNQRKQEYSNTQRQNHKKSEPSNGKRNEQNSSFKQDHNSKNHQSNHQKTKNKKSNPYSNQNNFNNTRKDYREEKSGFSWNTGSA | not soluble
MPISRYYDVKRDEKGERYLEPYVTGFLLLRLPLLNKGTAFTEEERRLLGLEGLLPPHVHTLEEQKERVYRRYRLIQSPLEKHIYLRHLQDRNEVLFYALVVDHLEEMLPILYTPTVGEAVREFSHIYRYPRGFTASTKNIDRIDEALQNVPLEDVRLIVATDSSAILGIGDQGYGGMAISIGKLTLYTAAGGVGPDKTLPVELDVGTDREDLLKDPLYLGVRHRRLRGEEYFRFLDRFVEAVRRRYPKALIQWEDFAKETAFQVLERYRKVIPSFNDDIQGTGAVALAGVLSACRLKGERLSDQVVVVYGAGAGGIGVAWALVEGMKREGLSEEEAKARVLVLDSKGLLVEGRSMEDYKRPYAQRPERLWGWRFAGEYPNLLETITNARATVLLGLSGQAGSFTEPVVRAMLANTPRPVIFPLSNPTSATEALPDDLVYWTEGRALVAAGSPFPPVGFKGRTVPIGQGNNAFVFPGLGLGAVLSRAREVTDGMVLEAAYALYDYTREHFPERIYPPVGRLREVSPYVAARVMQRALEEGVAEEARVQGLTLEALLDFVKSRFWEPRYLPYRPAPVI | soluble
MPKAKGKTRRQKFGYSVNRKRLNRNARRKAARGIECSHIRHAWDHAKSVRQNLAEMGLAVDPNRAVPLRKRKVKAMEVDIEERPKELVRKPYVLNDLEAEASLPEKKGNTLSRDLIDYVRYMVENHGEDYKAMARDEKNYYQDTPKQIRSKINVYKRFYPAEWQDFLDSLQKRKMEVELEHHHHHH | not soluble
MPKELWPLTGSRLEGSSMADRRRQRRTSKAGVGGRRVEYKRVPLGFIKAIVKTGHVVVEPSEKVRRNPPRGRFQVLLAGDGEVGYVSDVIGPINSPFIVVRVRERGVIEKLSPGAELIMLVPPKKPPRKGAPRRGSSRGRRGFKKGKARG | soluble
MPKIISKRKFNILRKTKEEIFSQIVYTKKRNGLHKAAKEYYFKDKDFTIIEDQQDRPDKPEELDTPDIPKPPKPPKGPDQPEEPGQPGGPDDPNSGNKKMPKPDEFVTHRQLQEFKKDLLVELHEIFPTKPELKRVEEKVDVLFELQKAQGEQIRIQGEQIKELKVEQKAQGETLQLILQTLQKMNDRLDKIEGKMDKMESRMDKMETRLDKLESKLEHHHHHH | not soluble
MPKITVYTGKEVLQIDAKEGSSLLDILAENSLYVEAPCGGKGICGKCKVAVKKDGKPYLENITKEEKRLLTSDELQKGIRLCCNLKVFESLEVFLPHSKIGAKILSGLYTLEHHHHHH | not soluble
MPKSEPRYLTIYNQLKNQITSGTLTANEQLPTELQLAKAYNVSRITSKRALTELESQGLIYRKQGSGSFVQPTDQPKTNKQLLLVLPFPTDAGLGDYASGVSLAASAHHYQAVTMDSASFFNLSAKEIHENYAGVIYLPQDLYQEAERIYQLKLAQVPVVILDKTLPALELPVVTADNFSGGQIATDHLLQLGHQQILFYAQRNNTVLPSSVYERYFGYLTALNQQHVTPVTALADLPTLNQFSTNDWLTYLADHQITAIVVENDLTAIKLMNTLRKVDPKIWQRLSIVGFDNIQAASLTYPSLTTVAQDFKGMGTKAVSLLLKTPVQPTTVRLPVQLIQRDSTQPFQPISKEK | not soluble
MPLKGFEIIKSMITLLFLYQAIIRNFEEIVQFLGKIMGCGSSSPAEVAPAEIIEPSPSSDVPSDPKIPTSYRPSIISLQIPNEFGDDVSSDALSDRSDAQEENVDYLYATDVTLQWLLERIYDKFKKPIPEDPQWIIERLNRPSWDLDYATSSVVRVTFGWDDDELPRSVVLKTPVAKDQRDDEEGKYHYIMFKRECNVYEWTQKFPKLIAPKIIHIKKHSKEGSGVVVMEDVSEKGQEQDPVKGLMLEVVRDLLKQIAYLHSISLKHTSWSTLVADLPPSYYAHTIGSFDDTLTFFERQDVDHSRFVHIGKYFSDEYLHSTATETTELLDIPKVLVHGEPYASNVFTKMEGKEQRILSLIDWTEGHSGCFAEDVAKIICWNLNAKERVDNTSSLLEGYHFHLARYYDGDCPFTVDIIQRAYEVFVPFAMVSLCGKVMSVKNKTEKEPLIERAKSLIQQVYAMERLNES | not soluble
MPLPFSIISTTSQDVLEDADSDEEAETFYVNWITEKNHSFPQSMVLELEEESLVSSVKLIVHKDYPPSSLTVSLGIPSNHFRNSRGKSYNADYSVRQELSFRDDFHVEYGQKHPKATVFFNSPAKFVRISVHGFSDSDVNHHRQVSILSVIISGAGEILPFDSHLKDEPKQTEMSYIELDKGILLPLKSKPKMRETKTIVGLYDTDSEDEEILFSKEMLNRLRKREAVMKNPQLPTTSAITETIAIDTSCEKSAPVSSSSSSKQQSSVSPPLSDRSKKQILDEILGIDEKGNKGKPRKEVYFGSRMSEFNNMLRLLERKREESIWEEKYAQASAIDESVKDLKSREAGLRELIIEREDALKGKDLIAAQR | not soluble
MPLSDADYNDPDNEEVAFLSRGLLEACIEFIRETPAGDALRIVAYEFTFKRILLELKAALERGVDVRIVYHATTANEKAIADAKLPENSKGVQILFKRTRPQTPHNKFIVRLKKGKTPVSVWTGSTNFTPSGFLGQTNVGHKVTDGDIAKIYLQLWEGLKADPDDFDATQAAMALTPLEHHHHHH | soluble
MPLSGEYAPSPLDWSREQADTYMKSGGTEGTQLQGKPVILLTTVGAKTGKLRKTPLMRVEHDGQYAIVASLGGAPKNPVWYHNVVKNPRVELQDGTVTGDYDAREVFGDEKAIWWQRAVAVWPDYASYQTKTDRQIPVFVLTPVRAGG | soluble
MPMVRVATNLPNEKVPVDFEIRLTDLLARSMGKPRERIAVEIAAGARLVHGATHDPVTVISIKSIGAVSAEDNIRNTAAITEFCGKELGLPKDKVVITFHDLPPATVGFNGTTVAEANKK | not soluble
MPNIVLSRIDERLIHGQVGVQWVGFAGANLVLVANDEVAEDPVQQNLMEMVLAEGIAVRFWTLQKVIDNIHRAADRQKILLVCKTPADFLTLVKGGVPVNRINVGNMHYANGKQQIAKTVSVDAGDIAAFNDLKTAGVECFVQGVPTEPAVDLFKLL | soluble
